Reference: PMC3078326

T1: Elk-1 Ets domain (UniProt P19419 5-86)
T1 sequence: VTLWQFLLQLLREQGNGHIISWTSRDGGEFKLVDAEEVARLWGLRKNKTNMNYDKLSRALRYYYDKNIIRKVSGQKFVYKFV

B1: IR5 MT1 (dsDNA)
DNA 1: CTCACTTTTGCGTCCCGCCGC
DNA 2: GCGGCGGGACGCAAAAGTGAG
B2: IR5 WT (dsDNA)
DNA 1: CTCACTTCCGCGTCCCGCCGC
DNA 2: GCGGCGGGACGCGGAAGTGAG
B3: IR5 MT2 (dsDNA)
DNA 1: CTCACGGCCGCGTCCCGCCGC
DNA 2: GCGGCGGGACGCGGCCGTGAG

Assays:
PU.1 Ets domain [1] = molecular target: T2, PU.1 Ets domain (UniProt P17947 170-253); experiment: competition
Elk-1 Ets domain = molecular target: T1, Elk-1 Ets domain; experiment: EMSA
PU.1 Ets domain [2] = molecular target: T2, PU.1 Ets domain; experiment: EMSA

Binder | binding result (PU.1 Ets domain [1]) | binding result (Elk-1 Ets domain) | binding result (PU.1 Ets domain [2])
B1 | no binding |  | 
B2 |  | no binding | binds
B3 | no binding |  | 
